These results are taken from the nanobody polyreactivity screen of Harvey et al. (2022).

The series in a line: yeast display, Sf9 membrane polyspecificity reagent, FACS + sequencing; frameworks hold sequencing errors. An outline of the steps: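 Polyreactivity labels are assigned by the sorting gate from which each nanobody was recovered. The gates were low and high (top ~1%), set on anti-HA fluorescence for expression and streptavidin fluorescence for reagent binding. Before sorting, galactose-induced (36–48 hours) yeast display cells were stained for 1 hour at 4 °C with 10% biotinylated, detergent-solubilized Sf9 membrane reagent.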
With “QVQLVESGGRLVQAGGSLRLSCPASGSTFGVYAMGWYRPEPGKEREFVAAINYSGRTYYADSVKGLFTISRDNAKITVYLQMNSLKPEDTAVYYCNADFFYRYYGAYDYWGQGNQVTVSS”, the “polyreactivity (PSR sort gate)” value is “high polyreactivity”.

Turning to “QVQLVESGGRLVQAGGSLRLSSAASGRIFKKNAMGRYRQAPGKERELVAAISYRGGSTYYADSVKGRFTISRDNAKNSVYLQMNSLKPVDTAVYYCNVGSRGCWDASDYDYWGQGTQVTVSS”, the “polyreactivity (PSR sort gate)” value is recorded as “high polyreactivity”.

For “QVQLVESGGRLVQAGGSLRLTCAASGITFGDYAMGWYRQAPGKERELVAGINWSGDGTYYADSVKGRFTISRDNAKNTVYLQMNSLKPEDTAVYYCAAETFYDYGGYDYWGQGTQVTVSS”, the “polyreactivity (PSR sort gate)” value was “low polyreactivity”.

For the sequence “QVQLVESGGRLVQAGGSLRLTCAATGRTFVRNPMGSYRQAPGKERELVATIRSGGSTNYADSVKGRFTISRDNAKNTVYLQMNSLKPEDTAVYYCATQGSRARYDYYYWGQGTQVTVSS”, the “polyreactivity (PSR sort gate)” value is on record as “high polyreactivity”.

With “QVQLVESGGRLVQAGGSLSLSCAASGRTFHGYAMGWYRQAPGKERELVARINWSDGRTYYADSVKGRFTISRDNAKNTDYLQMNSLKPEDTAVYYCAADKTVSYAPAWYYYWGQGTQVSVSS”, the “polyreactivity (PSR sort gate)” value is “low polyreactivity”.

“QVQLVESGGRLVQAGGSRRLSCAASGFTLRRNAMGWYRQAPGKERELVAAISSSGSTYYADSVKGRFTISRDNAKNTVYLQMNSLKPEDTAVYYCAALSKKVRTGQYNVGGDYWGQGTQVTVSS”: the “polyreactivity (PSR sort gate)” value is listed as “high polyreactivity”.

Consider “QVQLVESGGRLVQAGGTLRLSCAASGNIFFVYDMGWYRQPPGKESELVAAISWSGGSTYADSVKGRFTISRDNAKNTVYLQMNSLKPEDTAVYYCAADVAYVEYDYWGQGTQVTVSS”, for which the “polyreactivity (PSR sort gate)” value is on record as “low polyreactivity”.

Turning to “QVQLVESGGRLVQARGSLSLSCAASGRTFLRYAMGWYRQAPGKERELVAAISQRGGSTYYADSVKGRFTISRDNAKNTVYLQMNRLKPEDTAVYYCAADFPSSQAVDSWGQGTQVTVSS”, the “polyreactivity (PSR sort gate)” value is listed as “high polyreactivity”.

As to “QVQLVESGGRLVQPGGSLRLSCAASGFIFFYYAMGWYSQAPGKESELVAAISSGGSTNYADSVKGRFTISRDNAKNTVYLQMNSLKPEDTAVYYCAKRPTGGYKYYYTTSKYDYWGQGTQVTVSS”, the “polyreactivity (PSR sort gate)” value was “low polyreactivity”.

In the case of “QVQLVESGGSLLQAGCSLRLSCAASGFIIAWYAMGWSRQAPGKEWELVAAISLSGGSTRYADSVKGRFTISRDNAKNPVYLQMNCLKPEDTAVYYCNVDRWASTEYDYWGQGTQVTVSS”, the “polyreactivity (PSR sort gate)” value is “low polyreactivity”.

As for “QVQLVESGGSLVKAGGSLRLSCAASGRIFGSNTIGWYRPEPGKERELVAAITSRGGSTYYADSVKGRFTISRDNAKNTVYLQMNSLKPEDTSVYYCAAKTVLFIFGYWGQGTQVSVSS”, the “polyreactivity (PSR sort gate)” value is “high polyreactivity”.

“QVQLVESGGSLVQAGGSLRLICAASGFIFWTYAMGWYRQAPGKERELVARISWSGGSTYYADSVKGRFTNSRDNAKNTVYLQMNSLKPEDTAVYYCAALTESSSYGYWGQGTQVTVSS”: the “polyreactivity (PSR sort gate)” value is recorded as “low polyreactivity”.

As for “QVQLVESGGSLVQAGGSLRLSCAASGRIFHNNAMGWYRQAPGKERELVAAISTGGSTNYADSVKGRFTISRDNAKNTVYLQMNSLTPEDTAVYYCAAEHPVTYPTSKFDYWGQGTQVTVSS”, the “polyreactivity (PSR sort gate)” value was “low polyreactivity”.

As to “QVQLVESGGSLVQAGGSLRLSCASSGYIFRLYAMGWYRHAPGKEREYVATITASGGTYYADSVKGRFTISRDNAKNTVYLQMNSLKPEDTAVYYCAAAKLRRLSRVRYVYWGQGTQVTVSS”, the “polyreactivity (PSR sort gate)” value is on record as “high polyreactivity”.

Regarding “QVQLVESGGVLVHAGGSLRLSCAASGITFEYYTMGWYRKAPGKERELVAAISSGGGSTYYADSVKGRFTISRDNAKNTVYLQMKSLKPEDTAVYYCAARGYRADQWEYDYWGQGTQVTVSS”, the “polyreactivity (PSR sort gate)” value was “low polyreactivity”.

With “QVQLVESGGVLVLVGGSLRLSCADSGMTFYWYTMGWYRQAPGKERELVAAITRRSARTYYADSVKGRFSISRDNAKNTVYLQMNILKPEDTAVYYCGAAGRPGGYVQRDSWGQGTQVTVSS”, the “polyreactivity (PSR sort gate)” value is “high polyreactivity”.

“QVQLVESGGVLVQAGGRLRLSCAASGLTFYLYAMGWYRQAPGKQREFVAAISRSGTSTYYADSVKGRFTISRDYAKNTVNLQKNSLKPDDTAVYYCAALNYHKFAHKYDYWGQGTPVTVSS”: the “polyreactivity (PSR sort gate)” value is listed as “low polyreactivity”.

In the case of “QVQLVESGGVLVQAGGSLRFSCAASGIIFDQYAMGWYRQAPGKEREFVAVITRSGGSTYYADSVKGRFTISRDNAKKTVYLQMNSLKPEDTAVYYCAAPRLLGKRRRTNDYWGQGTQVTVSS”, the “polyreactivity (PSR sort gate)” value is given as “high polyreactivity”.

For the sequence “QVQLVESGGVLVQAGGSLRLICAASGSIFGWNTKGWYRQSAGKERELVAGITRGGSTYYADSVKGRFTISRDNAKNTVYLQMNRQKPEDTAVYYCAALVYRAWEFEFWGQGTQVTVSS”, the “polyreactivity (PSR sort gate)” value was “high polyreactivity”.

On to “QVQLVESGGVLVQAGGSLRLRCAASGRIFNRNAMGWYRQAPGKERELVAAITSCGSTNYADSVKGRFTISRDNAKNTVYLQMNSLKPEDTAVYYCNVYYHFFRLKTTYLRYYYWGQGTQVTVSS”, for which the “polyreactivity (PSR sort gate)” value is recorded as “high polyreactivity”.

For the sequence “QVQLVESGGVLVQAGGSLRLRCAASGRIFSRYTMGWYRQAPGKERELVAAIRNTGSTNYADSVKGRFTISRDNAKNTVYLQMNSLKPEDTAVYYCNARTAYGAYHYYYPQRMDYWGQGTQVTVSS”, the “polyreactivity (PSR sort gate)” value was “high polyreactivity”.

“QVQLVESGGVLVQAGGSLRLSCAASGFTFNYYVMGWYRQAPWKERELVATITSVGSTYYADSVKGRFTISRDNAKNTVYLQMNSLKPEDTAVYYCNADWYWRVYWGQGTQVTVSS”: the “polyreactivity (PSR sort gate)” value was “high polyreactivity”.

Turning to “QVQLVESGGVLVQAGGSLRLSCAASGFTFTPNAMGWYTQAPGKERELVAAIDWNGGSTYYADAVKGRFTISRDNAKNTVYLQMNSLKPEDTAVYYCAADDEEWKVITDYDYWGQGTQVTVSS”, the “polyreactivity (PSR sort gate)” value is listed as “low polyreactivity”.

Regarding “QVQLVESGGVLVQAGGSLRLSCAASGGIFNQYAMGWYRQAPGKERELVAAISSSGSSTYYADSVKGRFTISRDNAKNTVYLLMNSLKPEDTAVYYCNTYYSYQRVGYWGQGTQVTVSS”, the “polyreactivity (PSR sort gate)” value is given as “high polyreactivity”.

On to “QVQLVESGGVLVQAGGSLRLSCAASGLNLAPNAMGWYRQAPGKEMELVAAITRSGGDTYYADSVKGRFTISRENAKNTVYLQMNSLKPEDTAVYYCAKARPGFLYDHWGQGTQVTVSS”, for which the “polyreactivity (PSR sort gate)” value is given as “high polyreactivity”.

In the case of “QVQLVESGGVLVQAGGSLRLSCAASGLTFSWYAMGWYRQAPGKERELVASINYSGANTYYADSVKGRFTISRDNAQNTVFLQMNSLKPEDTAVYYCNSRLRRYQNERVTYDYWGQGTQVTVSS”, the “polyreactivity (PSR sort gate)” value is on record as “high polyreactivity”.

“QVQLVESGGVLVQAGGSLRLSCAASGRIFRSYALGWYRQAPGKETEFVAAISSGGSTNYADSVKGRFTISRDNAKNTVYLQMNSLKREDTAVYYCAADLWAYTWYWHSDYWGQGTQVTVSS”: the “polyreactivity (PSR sort gate)” value is “low polyreactivity”.

As to “QVQLVESGGVLVQAGGSLRLSCAASGRTFNAYTMGWYRQAPGKERELVAAITSSGGNTYYADSVKGRFTITRDNGKNTVFLQMNSLKPEDTAVYYCNTVYLYGTHDYWGQGTQLTVSS”, the “polyreactivity (PSR sort gate)” value was “low polyreactivity”.

Take “QVQLVESGGVLVQAGGSLRLSCAASGRTFRYYGMGWYRQAPGKERVVAAITWSGDTTYYADSVKGRFTISRDNAKNTVYLQMNSLKPEDTAVYYCAAQSWHRYYYWGQGTQVTVSS”: the “polyreactivity (PSR sort gate)” value is on record as “high polyreactivity”.

Consider “QVQLVESGGVLVQAGGSLRLSCAASGRTFSPYAMGWARQAPGKDRELVAAITSRGASTYYADSVKGRFTISRDNAKNTVYLQMNSLKPEDTAVYYCNSGRTYRRLGDYWGQGTQVTVSS”, for which the “polyreactivity (PSR sort gate)” value is recorded as “high polyreactivity”.

In the case of “QVQLVESGGVLVQAGGSLRLSCAASGRTFYYYAMGWYRQAPGKERELVASISWDGGNTYYADSVKGRFTISRDTAKNTVYLHMNSLKPEDTAVYYCNRRFYHKDDYWGQGTQVTVSS”, the “polyreactivity (PSR sort gate)” value is listed as “high polyreactivity”.

“QVQLVESGGVLVQAGGSLRLSCAASGRTLRSYAMGWYRHAPGKERELVAAISRSGGSTYYADSVKGRFTISRDNAKNTVYLQMNSLKPEDTAVYYCATRYLGRLDYWGQGTQVTVSS”: the “polyreactivity (PSR sort gate)” value is listed as “high polyreactivity”.

In the case of “QVQLVESGGVLVQAGGSLRLSCAASGRTMDPYTMGGYRQAHGKERELVAAITSSGGRTTYADSVKGRFTISRDNAKNYVYLQMNSLKPEDTAVYYCAKKFRPGYRSQYLRYSWGQGTQVTVSS”, the “polyreactivity (PSR sort gate)” value is listed as “low polyreactivity”.

In the case of “QVQLVESGGVLVQAGGSLRLSCAASGSIFGSYGMGWYRQAPGKERELVAAIRVSGGSTYYADSVKGRFTISRDNAKNTVYLQMNSLKPEDTAVYYCAARARSTPRKYYYTRGYWGQGTQVTVSS”, the “polyreactivity (PSR sort gate)” value is recorded as “high polyreactivity”.

“QVQLVESGGVLVQAGGSLRLSCAASGSIFGSYTMGWYRQAPGKEREMVAAISGGGASTYYADSVKGRFTISRDNAKNTVYLQMNSLKPEDTAVYYCYKRGVIERRKPWHYSTFDYWGQGTQVTVSS”: the “polyreactivity (PSR sort gate)” value was “low polyreactivity”.

Turning to “QVQLVESGGVLVQAGGSLRLSCAASGSISYSYAMGWYRQAPGKERELVAAITWGGDSTYYADSVKGRFTISRDNAKNTVYLQMNSLKPEDTAVYYCAADLRFTYPVYRAGGGYDYWGQGTQVTVSS”, the “polyreactivity (PSR sort gate)” value is given as “low polyreactivity”.

For “QVQLVESGGVLVQAGGSLRLSCAASGSTFKPYAMGWYRQAPGKEREFVAANSRGTRTYADSVKGRFTISRDNAKNTVSLPMNSLKPEDTAVYYCAAEWSWIFGYHYEYDYGGQGTQVTVSS”, the “polyreactivity (PSR sort gate)” value was “low polyreactivity”.

For “QVQLVESGGVLVQAGGSLRLSCAASGSTFSRYAMGWYRQAPGKETELVAAINWSGGRTYYADSVKGRFTISRDNAKNTVYLQMNSLIAADTAVYFCAADGRRYSGEYYYWGQGTQVTVSS”, the “polyreactivity (PSR sort gate)” value is “high polyreactivity”.

For “QVQLVESGGVLVQAGGSLRLSCAASGSTFTDYAMGWYRQAPGKERELVAAITDSGGRTYYADSVKGRFTISRDNAKNTVYLQMNSLKPEDTAVYYCATEDDRWYYWGQGTQVTVSS”, the “polyreactivity (PSR sort gate)” value is reported as “high polyreactivity”.

Take “QVQLVESGGVLVQAGGSLRLSCAASGSTFYYYAMGWYRKAPGKERELVAAISSSGGTTYYADSVKGRFTISRDNAKNTVYLQMNSLKPEDTAVYYCAKYPWYWDEGNSWGQGTQVTVSS”: the “polyreactivity (PSR sort gate)” value was “low polyreactivity”.

In the case of “QVQLVESGGVLVQAGGSLRLSCAASGSTLGGNAMGWYRQAPGKEMELVAAITSSAGSTYYADSVKGRFTISRDNAKNTVYLQMNSLKPEDTAVYYCDADYSRDEYDYWGQGTQVTVSS”, the “polyreactivity (PSR sort gate)” value is “low polyreactivity”.
